Drawing on the supplement of paper PMC10567573, this text covers protein stability index for 53 sequences.

This data set is described as follows: protein stability index of a GFP-peptide fusion (GPS, HEK-293T) (PSI 1-6); higher = more stable.
The mark [1] stands for this setting: treatment: DMSO, c terminus: a fixed tail appended.
Where [2] appears, read: treatment: MLN4924 1 uM, 8 h, c terminus: a fixed tail appended.

± gives the standard deviation.
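Also: 24-mer peptide tiles fused after GFP, lentivirally expressed, FACS-sorted into six equal bins by GFP/DsRed ratio, decoded by Illumina sequencing, PSI is the read-weighted mean bin number.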

As to VEEGDSRFLANEVLQENYTHLPKA [WEE1], the protein stability index is, setting by setting: under setting [1], 4.74 ± 0.2; under setting [2], 4.81 ± 0.13.

The sequence VFFIYLYQRWIYRVDPTRVNEFGM [CLPTM1] showed a protein stability index under setting [1] of 2.96 ± 0.49 and a protein stability index under setting [2] of 2.69 ± 0.055. Sequence VFPGARLLTIGDANGEIQRHAEQQ [CARM1] displayed a protein stability index under setting [1] of 4.64 ± 0.16 and a protein stability index under setting [2] of 4.23 ± 0.2.

In the case of VFQEMLLHKFPYRMVPALPPKRML [SNX8], the protein stability index runs as follows: under setting [1], 2.12 ± 0.54; under setting [2], 2.13 ± 0.22. For VFQTEQKNLFRLEMDMVVFRPEMK [N4BP2L1] the same measures were 2.02 ± 0.26 and 2.16 ± 0.092.

The sequence VGDIVSFMHSFEEKYGRAHPVFYQ [FAF2] showed a protein stability index under setting [1] of 2.04 ± 0.34 and a protein stability index under setting [2] of 2.17 ± 0.22.

On to VGEIVGIITRHNLTYEFLQARLRQ [CLCN6], for which the protein stability index by setting is: under setting [1], 2.73 ± 0.64; under setting [2], 2.67 ± 0.85.

On to VGLRNTLTRIRKWIEHSKLREINF [GLT8D2], for which the protein stability index was found to be 2.41 ± 0.3 under setting [1] and 1.9 ± 0.31 under setting [2]. On to VGPRETEEKVRDLLWAKFTNSDTP [TOR1AIP2], for which the protein stability index reads like this: under setting [1], 4.14 ± 0.43; under setting [2], 4.1 ± 0.3.

For the sequence VGRIANTYNLTEVDKYVNSFVLKN [KLHL13], the protein stability index runs as follows: under setting [1], 2.64 ± 0.32; under setting [2], 2.85 ± 0.45.

Take VGSALHRESFTSRQKTSGPSVIQE [C10orf62]: the protein stability index under setting [1] was determined as 4.18 ± 0.15 and the protein stability index under setting [2] is 4.46 ± 0.2.

Regarding VHETPAASKTVFFFFSSPGNNNGT [BTBD1], the protein stability index runs as follows: under setting [1], 2.37 ± 0.3; under setting [2], 2.15 ± 0.31. For VHPIIKRRQCRPEIRMWQTREKAK [PHTF1] the same measures were 3.15 ± 0.21 and 3.32 ± 0.13. Consider VILISRISSVGGEAMFCDFPKINH [CFHR2], for which the protein stability index amounted to 3.66 ± 1.3 under setting [1] and 2.97 ± 0.21 under setting [2]. For VILKNSQGEEVAQRSTVFKTTIPE [LMNB1] the same measures were 2.67 ± 0.34 and 2.84 ± 0.24. For VKDALFCSCLSDILRFIYSGAFQW [RHOBTB3] the same measures were 2.79 ± 0.36 and 3.31 ± 0.48. The corresponding values for VKDDELDAMLKEASGPINFTMFLN [MYL5] are 3.39 ± 0.082 and 3.5 ± 0.19.

For the sequence VKYGLAATVWSSNVGRVHRVAKKL [ALDH8A1], the protein stability index reads like this: under setting [1], 2.48 ± 0.33; under setting [2], 2.43 ± 0.4. The corresponding values for VKYVGNMHGNEALGRELMLQLSEF [CPN1] are 2.24 ± 0.2 and 2.25 ± 0.39. The corresponding values for VLLKTADPRYELPSRKYISTKAIP [ZBED1] are 2.19 ± 0.37 and 2.34 ± 0.62.

On to VLMLLVALLFTGIAVLGIVMLKRI [SCAMP3], for which the protein stability index reads like this: under setting [1], 2.85 ± 0.63; under setting [2], 3.02 ± 0.73. Take VNHYSEVADGLCCVLTTPCLTQST [SLA]: the protein stability index by setting is: under setting [1], 2.77 ± 0.27; under setting [2], 2.53 ± 0.38.

Consider VNNNYEHRHTSHLGHAVLPSNARG [SPRY1], for which the protein stability index came out at 3.96 ± 0.2 under setting [1] and 4.03 ± 0.21 under setting [2]. For the sequence VPAPEAFRDPIWSTWALYGRAVDQ [MYORG], the protein stability index runs as follows: under setting [1], 2.66 ± 0.38; under setting [2], 2.61 ± 0.34. Take VPCYSKTQKLSKIETLRLAKNYIW [NEUROD6]: the protein stability index reads like this: under setting [1], 2.43 ± 0.34; under setting [2], 2.81 ± 0.58. The sequence VPSAVRCLQKRGSATSSSNTSLT [FSD1] registered a protein stability index (treatment: DMSO, c terminus: native) of 4.34 ± 0.13 and a protein stability index (treatment: MLN4924 1 uM, 8 h, c terminus: native) of 4.43 ± 0.082. For the sequence VPWNQVGMRDADYIAAFLHVLLPV [HDAC6], under setting [2], the protein stability index was 2.07 ± 1.5.

Turning to VQDYSYFFFLRMDENYNLLPHGVN [CCDC3], the protein stability index under setting [1] worked out at 2.38 ± 0.48 and the protein stability index under setting [2] worked out at 2.48 ± 0.37. As for VQESQSERLQAAGTDSAGPKTVPS [ELOA2], the protein stability index by setting is: under setting [1], 5.29 ± 0.38; under setting [2], 5.19 ± 0.35. The corresponding values for VSAQYLSEIEMAKAQRDYELKKAA [FLOT1] are 4.34 ± 0.22 and 4.54 ± 0.14. As to VSCPKSEVRAKFKFSLLNAKREET [SPOPL], the protein stability index came out at 3.67 ± 0.3 under setting [1] and 3.53 ± 0.19 under setting [2]. For VSPGPSRSFKEELLCAVCYDPFRD [TRIM35], the protein stability index runs as follows: under setting [1], 2.79 ± 0.21; under setting [2], 2.91 ± 0.27. Turning to VSTQPAMMVNLRACSAPGGLVPSE [C2CD2L], the protein stability index by setting is: under setting [1], 3.43 ± 0.16; under setting [2], 3.5 ± 0.14. For VTADDFVQTSVIGSNGYILNKPAL [EHMT1], the protein stability index is, setting by setting: under setting [1], 3.11 ± 0.26; under setting [2], 3.13 ± 0.25. With VVFGLLLSYVMSGYRCFVCPVEYN [CDS2], the protein stability index is, setting by setting: under setting [1], 3.55 ± 0.062; under setting [2], 3.41 ± 0.31.

Consider VVGDNAVGKTRLICARACNATLTQ [RHOBTB2], for which the protein stability index was found to be 2.63 ± 0.17 under setting [1] and 2.67 ± 0.14 under setting [2]. The corresponding values for VVNESTVCLMGHERRQTLNLISLL [TENT5C] are 2.18 ± 0.23 and 2.31 ± 0.12. VYGVSKETFLSFLEYLYTDSCCPA [RHOBTB3]: the protein stability index by setting is: under setting [1], 2.16 ± 0.41; under setting [2], 2.1 ± 0.24. For VYLHFLSVVTEDGPEPKDKGSLPQ [ZNF232], the protein stability index by setting is: under setting [1], 2.27 ± 0.18; under setting [2], 2.35 ± 0.33. The corresponding values for VYNANINLFCVLRLVVEFPATGGA [PKD2L1] are 3.05 ± 0.41 and 3.13 ± 0.71. For WEGFIGGFFSTVVFGFIAAYVLSK [CDS1] the same measures were 2.55 ± 0.54 and 3.08 ± 0.15.

In the case of WEHRTRVGRLYAVYDQAVSIFYDL [SMAD6], the protein stability index is, setting by setting: under setting [1], 2.52 ± 0.66; under setting [2], 2.59 ± 0.47.

Turning to WEMIRKIGDTSVSYKYTSRYVLKA [LMNB1], the protein stability index is, setting by setting: under setting [1], 1.98 ± 0.58; under setting [2], 2.56 ± 0.49.

The sequence WFLSKTEELNKEVASNSELVQSSR [KRT16] had a protein stability index under setting [1] of 3.86 ± 0.39 and a protein stability index under setting [2] of 3.96 ± 0.17. On to WLLTKIDHWNNEKERILLVTDKTL [TPRG1], for which the protein stability index reads like this: under setting [1], 2.11 ± 0.41; under setting [2], 2.16 ± 0.28. For WLSSRAAAIKVNDSVPFHLGWNST [MYORG] the same measures were 1.99 ± 0.23 and 2.19 ± 0.38.

On to WNDSCGEDMEASDYELEDETRPAK [WEE1], for which the protein stability index runs as follows: under setting [1], 5.41 ± 0.32; under setting [2], 5.45 ± 0.17. The corresponding values for WRGNGINVLKIAPESAIKFMAYEQ [SLC25A25] are 2.19 ± 0.29 and 2.36 ± 0.19. For WRTWMTITQSWQVSVRVQPRGRAH [C22orf15] the same measures were 2.38 ± 0.64 and 3.05 ± 0.39. For the sequence WSQQIEESTTVVTTQSAEVGAAET [KRT18], the protein stability index amounted to 5.5 ± 0.21 under setting [1] and 5.42 ± 0.14 under setting [2]. For WVKQQAEREAEKEQKRLERLQRKL [SDE2] the same measures were 4.18 ± 0.36 and 4.1 ± 0.33. Regarding WVLEPVLEGWRPDQLYRRKKDNHA [ELOA2], the protein stability index runs as follows: under setting [1], 2.51 ± 0.31; under setting [2], 3.34 ± 0.14. The corresponding values for WVSHTAAMTGTFPAYGMSPSLSTI [DVL3] are 2.62 ± 0.34 and 2.29 ± 0.26.
